Experiment: soluble fraction after stress (log2 fold change); higher = more stays soluble; pooled small domains, quantitative proteomics
Settings: stress: 75 degC
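Further: 20 min heating vs room temperature control held 20 min.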

HMISKTFEINEDNINNRLDIFLANQFDNLSRGIVQKLIESHSVSVSGNFVEKDYKLKLGDIIDVEINLS
soluble fraction (log2): -1.64

HMISLNEDQKLAILNEWNQRPDDPPFIKELIELVFPDIPEEAKTGRSRYGIAIKKFLAEKSLQAKV
soluble fraction (log2): -0.197

HMISLPSYIREEATEVYNRLHDLGLEYTSLDVNDDSIPKGYVVRTVPEAGASVPAGQVVTVYVSLG
soluble fraction (log2): -0.829

HMISQLRGKVLGTDRDALVIDVGGVGFRVSATAGARALAGQSGNEARLFTEMVVREDSIDLFGF
soluble fraction (log2): 0.0812

HMISRKIKELRLSHDLTQKDLADYLNLTPKMVSFYELGQRVPPSDIILKLAEKFHVSTDYLLGNEDRP
soluble fraction (log2): -0.196

HMITDNEFLRIVSFLKQRYGIDMSQKKVIMNGRLENYLKSGGWSSFDEYMNDVEKDTSGDLEKTLVNFLTT
soluble fraction (log2): -1.38

HMITETIGANIKTLRDKFRMSQQDLASKMNTARPVISNWENGKTEPSSSQLLKLAKIFDTSTDKILGNV
soluble fraction (log2): 0.0689

HMITKEDVANKKVNLLFFGNFHKMKLPDFEWGITEMMQDRDYLYGSLTKDLYFLGLVLDRKYKI
soluble fraction (log2): 0.241

HMITKENYLEKIKEIKVNEFPASMRELYDFFNEATRNGTDWSAYEEGNVKYVVDAYLERLNLLYKSN
soluble fraction (log2): -1.01

HMITLYIHNLEEVGKRLDHYLVSNLDDHSRSQIQSWIRSGSILVNDRSVKTGYSLELNDQILINPPK
soluble fraction (log2): -2.51

HMITNSTEIEAMIDSLIKENPEQAEQYRNGNTKVVGWFVGQMMKASKGKANPQVVGDLLAQKLVG
soluble fraction (log2): 0.0621

HMIVAHEINRHLGESDQPVEIPDNRREGAVAELLKTFNNDDAFREMDDGKYEVALDGEKVREAARSLLA
soluble fraction (log2): 0.0479

HMIVDARNREINLGSHVRYVDTGTVGEVTDSKVENDASWVKIDKTNLWYLANKLELLNDEDFKT
soluble fraction (log2): 0.0789

HMIVDINDVRIDKYIADNTDYSRNLILNLIKNGDILVNDSKIKPSYKVKQGDKITINNVKTD
soluble fraction (log2): 0.332

HMIVKQPDIRKQELLDIGVRLYFEAGEKGVSIQQVVKQAGVATGLFYYYFSSKDAFLDEALNDYID
soluble fraction (log2): 0.0613

HMIVLPGEELEVHIVQEGKEDGQGVAYLDDGTMVVVEGGRPYVDSFAYVAVTRVLQTGAGRIIFAHPTR
soluble fraction (log2): -2.54

HMIYNSGTTDSRGEAIVGGYLVTVTDTDTKDPVANAAVTLHKDNSISIRLPNSRLLDYADQTTVTVQLV
soluble fraction (log2): 0.0328

HMKAEKEIEKIKFTIYNEFKRKQEENHFLPPWDGTKMLRQFVLGVVANNPKYQHVNTDILYRDLLLLYYQ
soluble fraction (log2): -2

HMKAFTKKELQDLVLNIFRASPTTNYNYKQLYKLIRGKDPEIKTLIIAVLLGLEKNGSILQMRPGKYKFS
soluble fraction (log2): 0.97

HMKALDTVLSEIPGLGPVRIKQLLKVFGSVDAIRKASLQDLQQIEGIGPKLAQTIYEYFHQP
soluble fraction (log2): 0.898

HMKALYNLDYEKPLSGSYYTETTARAAVPTDIRKLGLIITYKTDATTNITEQFVGSSISAWTTSGNWKSLG
soluble fraction (log2): -1.77

HMKAPPLTDREKEILRWVAAGLQNKEIAHKLGISLATVRNHIHNILEKLDVHSKLEAVSLAFRQGWVS
soluble fraction (log2): -0.356

HMKASEMKKGQTIKIDGVLYVIVDFQHVKLSKGGAVYQTKLRNLAAGGIRDIRIRAEEVLEDA
soluble fraction (log2): -2.97

HMKDITPASEDQLKAITDLMLKVNGEWSDAFFTFISKKFNHQISSPEQLTTFEANTIIDMLRKKAEG
soluble fraction (log2): -0.601

HMKDLDSLSQEAKSVYAVFSDKPIHIDDIKRKTGLDFSKLFKAVTELELAELISSGEGKMYSL
soluble fraction (log2): -0.0075

HMKDLTIRQQQFLNYIKDHLSLTGFPPTRSDIANEMGFKSPNAAEDHLRALARKGAIEIVPGTSRGIRLP
soluble fraction (log2): -0.419

HMKDMKISTKNLLQELAKNYPDQTSFRKNVIETTARAMGYTGKDFYPLLTTDNRVKIGTYDLATFLRSI
soluble fraction (log2): -0.969

HMKDNPNETFERIAGKITRTLRSGPVRIQQLDLLFSESAGKVVDVLRAMAENGEVLIKDDTIQLNGNN
soluble fraction (log2): -0.0108

HMKDTFHNLSEEKRERIIRAALGEFAASGYEKATLDGVVQAAGISKGGLYEYISSKEDLFRYLLEYSYD
soluble fraction (log2): -1.82

HMKDTNENLMKMLALLIHAAKIDENYSDEEKELIVNFAEMSSKENLNREQILSIIKSAEEYE
soluble fraction (log2): -1.24

HMKEADVRKNEILDAAGILFSEKGYDNTSVTDIMNAVGFAKGTLYHHFKSKEDIMDALIKRQTD
soluble fraction (log2): -0.125

HMKEAISIYPNPVKDILTIRGMDETSGVSFKLYDVTGNLLLESTHSELDMSGLNRGVYFLDIAGDVRKVVK
soluble fraction (log2): -0.342

HMKEEDLPREYTDILGNSVHERLNIMIHDIIEHSQDKPEVAMSPEREEAMHGLRRWMFDHVYH
soluble fraction (log2): -0.168

HMKEEVEILGGKATIYTNDYGVWQFRLWLTTDNKYVRKSLRTKVKDYAITEGEKLYIQIRSDIEKGIKYY
soluble fraction (log2): -1.13

HMKEEVSVPDIKGMTYEEAEAKLAKYDLEIEKGETVKASEQYEEGQISSQEPEAGSKVKEGSTIVVDVVE
soluble fraction (log2): 0.185

HMKEFSFNGGKVIMNYEADRIQIKHDSRPNQEVITLMKRNGFKWSPTNQAWQRQITGNAIYVTKNLLKS
soluble fraction (log2): -2.33

HMKEGGGYGQLRLKEAAIQHAFDLQNALQFIAERGYQAHENTTLKEAANALNLKPIELLELLKSSQ
soluble fraction (log2): 0.0627

HMKEIDVPNVVGASENAARKLLESYGFQVEVQWENGERVDNAVVKSYSPNGSAKSGSTVTIVLGT
soluble fraction (log2): 0.0998

HMKEINFTIEESAKGRLDKVIAENVADLTRSQVQSLIKKGQILVNDAPTTNRYQVKPNDQVIIKLPDPV
soluble fraction (log2): 0.396

HMKEKLGEFENVFLSVDELQKLKSKLGAETESYIERLSNYIASSGKKYKSHYATILSWTQKDTK
soluble fraction (log2): -0.88

HMKELASKYEISEYMKFLIENLDKSNFFYPIEKRESMINNIFSIYSKADLSKKELNMLWGMLKKLR
soluble fraction (log2): -2.31

HMKELTELIEKIKLRRLELGLSYQELSDLTGINKSTLQRYETGFIKKVPINQVQIIAKALNVTPGYLMG
soluble fraction (log2): -0.72

HMKEMTAKQIDMFSDKLSKLESFQSHYIADAGVSVTEYKQAIAAKLQDQFYVEAWGKYLADVGFT
soluble fraction (log2): -0.393

HMKEPIYQTILSALILELNTNHFRKNDPFYSESELRKKYQVSSTTVVRVLNMLADQGYIYRIQGKGSFVSK
soluble fraction (log2): -2.62

HMKESFAQLFSLLTPTEQKVAALISQGFSNKDIAAKMFISLSTVKTHTNHIFAKMGVANRNALVAKVNN
soluble fraction (log2): -1.46

HMKESRFDYDAVLLYSDKDSITEVKDAVQHLTKEFGSVFTTKKIPEKATFGKLFRIEKGEVNIIEDN
soluble fraction (log2): 0.367

HMKESRLFRILYYLLQHKKATAPELAEEFEVSVRTIYRDIDYISSAGVPIYATQGKDGGIAILDSF
soluble fraction (log2): -0.777

HMKETLSINSTDFEVRRSSRRKRISVGFDTGTETFFIAAPTKLAGTDILRILGPQISRLMDRLT
soluble fraction (log2): -2.22

HMKEVDERPWGKYEVLLDAPDVKVKRITVNPGQRLSYQYHEKRAEVWTVVSGILTIILEDDKLFRG
soluble fraction (log2): 0.17

HMKFIPPSLEEARAYFVEKGSSEPEAEKFVNHFDSIGWKVGRARTPMKKWKSAANNWIANNREWNQ
soluble fraction (log2): -0.543

HMKFKDYYAALGIDRNADLEQIKKAYRKLARQYHPDVSKAPDAEARFKDAAEAYATLKNPEKRAAYDELGS
soluble fraction (log2): 0.0895

HMKFLHLADLHLGKRVNGFSMLEDQAYILRQILTILDDERPDGVLIAGDVYDKPVPPTEAVELLD
soluble fraction (log2): -0.859

HMKFLYQKAREEIISLIQDGEIKPSEKIMPERELSELLGYNRMTIKKAINSLVAEGVLMKKRGAGTFLLG
soluble fraction (log2): -0.292

HMKFLYQQVYQDIKDKITSAQYQFGDLLPSEREIGEEYHVDRTTVRKAFSLLVDEGLVEKRAGKGSVVIS
soluble fraction (log2): -0.74

HMKFTELEQLMLKREINTLADIARVLKTTPQAVSNWKARDQIPYHIVAKINASINKDSNDSSLSI
soluble fraction (log2): -0.328

HMKFTSEKDISLLELVKAKMGFVSNTKARNVIKIGQIMVSGKVIKIPSTLIKPGTEVELARRV
soluble fraction (log2): -1.76

HMKFYKMIDESDEKIENPEIMIFQIIELVSSTTYSAIINKEPVDVETLKPYLYQTIRTIIINHQS
soluble fraction (log2): 0.363

HMKGEKVTKIELSNFIKFLINDLENKGFFNPPEKKDSMIDNIYSIYNKMTLTKKELNMLWGMHKKLK
soluble fraction (log2): -1.9

HMKGERHNKILELIQQHAIDRQEDLLRYLKEAGFQVTQATVSRDIRELHLVKVAAGGGQYRYVSAAAAS
soluble fraction (log2): -1.04

HMKGIHDYITKDGLRVVKVHYSADPDKDVTTVEGKKWMAKALLGYPGGLEGAKWRREMEIDFNA
soluble fraction (log2): -0.167

HMKGILVPASSIISDGDKNYVWTVEKGKAKKVEVTLGNADAENQEISSGLTKDSKVITNPTDSLKDGQEV
soluble fraction (log2): 0.228

HMKGKDLQDAVVTVVGGAENWNAIRAWAQASASDSEKREINAAFQSGKLMATMMAERLALAYQQSG
soluble fraction (log2): 0.182

HMKGKITTNWVSLTSDLGWLRSELYSSGSVLEERISNEGLIELHLENFQNDLIKLLEVEGFDLIKE
soluble fraction (log2): -3.18

HMKGQLVVFPNPASSNDMVRFNKNISFSIFDITGHLVDTKRNVNELSVGNLEAGTYILRTEQGDVLRMVI
soluble fraction (log2): -1.45

HMKGRPTTAIITDERTNLRSGPGATNKTIAQAGAGEKLAIIDEKDGWYQVSRAGINGWVAGWVIDVAW
soluble fraction (log2): -1.83

HMKGSIFLDEATKMVDNSALKSLNTFLEEYARETNNQIFLISHQETPAEVTQIKLKKVGGETSYE
soluble fraction (log2): 0.154

HMKGSPFSQLPKEKKKRILQAAIEVFAQNDYKHASTDEIASRAGISKGLLFYYFHDKKTLYFYLGEYLKR
soluble fraction (log2): 0.118

HMKGTLPEMITSREEVVLKFMVNGWDAKRIASELDISVLTVRKHIANIYEKLHVQSKAEIISMAHQQKWFN
soluble fraction (log2): -3.27

HMKGTSIELIVPQDIAGLRLDQVLAKLLPQWSRSRLQSWINEKHITVNGQTTTAKQKLWGNETIQIIPPI
soluble fraction (log2): -1.45

HMKHEFSEEWLDWIKSNIADGQNKNGLFKVLLNHGYAYDAVREVMQYEPTVPLDELVDPLRA
soluble fraction (log2): -0.143

HMKHFNDEELDGFAGLKSDDYNEEQVELFRNIFEELHPDEIIEWTESLRRRGIEIPSSLKDEVVMMIN
soluble fraction (log2): 0.29

HMKHFTYEEMELMSIYDPGTREGLIANLEEMRGYLEPDETELRELTDSALEKLRELSDADYEQLELI
soluble fraction (log2): -0.516

HMKHMTMYEAAKIAKEVGAPKLWLTHYSPSMTRPEEFMDDVRKIFPAAYAAKDGWTMELNFDEG
soluble fraction (log2): -0.74

HMKHRTQMDIQQLPAIEGKGGFEYKISIIHLSTRIKYSEIHDNYNTTTIAKVYENAIERLPPF
soluble fraction (log2): -2.39

HMKHSLNHLGLWLLPELSRRDIQLREFAHLLGTTSQGLSDLLRGQRFSSHTLAQWQLRFQEKLDEIDQAS
soluble fraction (log2): -1.99

HMKHTVSVDRLQPGVFVSLGGLSWLDHPFLLNRFRLTDHDQIKVLRSLGVKEIEWDPTRSTAQPLPE
soluble fraction (log2): -1.04

HMKIAPRTAENQQLRKMILEIYTTSKKRVGPAKVRRMLLRDYGISISIGRVYRLMSTMNLPKMS
soluble fraction (log2): 0.0421

— the domain aggregation screens of Martell et al. (2025)
